B1: library; numbered along this chain (parent)
chain: MRKPRAAVGSGHRKQAASQEGRQKHAKNNSQAKPSACDGLARQPEEVVLQASVSSYHLFRDVAEVTAFRGSLLSWYDQEKRDLPWRRRAEDEMDLDRRAYAVWVSEVMLQQTQVATVINYYTGWMQKWPTLQDLASASLEEVNQLWAGLGYYSRGRRLQEGARKVVEELGGHMPRTAETLQQLLPGVGRYTAGAIASIAFGQATGVVDGNVARVLCRVRAIGADPSSTLVSQQLWGLAQQLVDPARPGDFNQAAMELGATVCTPQRPLCSQCPVESLCRARQRVEQEQLLASGSLSGSPDVEECAPNTGQCHLCLPPSEPWDQTLGVVNFPRKASRKPPREESSATCVLEQPGALGAQILLVQRPNSGLLAGLWEFPSVTWEPSEQLQRKALLQELQRWAGPLPATHLRHLGEVVHTFSHIKLTYQVYGLALEGQTPVTTVPPGARWLTQEEFHTAAVSTAMKKVFRVYQGQQPGTCMGSKRSQVSSPCSRKKPRMGQQVLDNFFRSHISTDAHSLNSAAQ

Variants of: B1
Assay: 8OG:A repair function score (normalized; synonymous = 0, nonsense = -1) (normalized log-likelihood score); higher = more repair activity (WT-like)
Conditions: with 8OG:A DNA repair reporter (GFP) in HEK-293 MUTYH KO cells
Method in brief: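 After 72 h, viable mCherry+ cells were split into GFP+ (repair) and GFP− bins in three replicates per tile. These cells were MUTYH knockout HEK-293 cells holding lentiviral MUTYH cDNA NNN codon-scan libraries, kept in 10 pg/ml doxycycline and co-transfected with mCherry plus an 8OG:A GFP repair reporter. Sequencing of tile amplicons gave per-tile Rosace fitness scores, normalized into a repair function score anchored on synonymous and nonsense distributions. Synonymous medians were fixed at 0, nonsense at -1, and variants under 300 counts per million at the start were removed.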
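Note: cells sorted at 72 h after reporter transfection.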

| Variant | 8OG:A repair function score |
| --- | --- |
| L370M | -0.659 |
| T263C | -0.141 |
| F505V | 0.00446 |
| A305M | -0.0121 |
| L95E | -0.00548 |
| V65H | -0.0853 |
| Q386A | 0.0488 |
| T436I | -0.0834 |
| T511W | -0.0217 |
| D300F | -0.255 |
| R217M | -0.936 |
| A63Y | -0.056 |
| Q181N | -0.118 |
| I198D | -1.1 |
| P474N | -0.0807 |
| C347E | -1.34 |
| Q202G | -0.395 |
| P365K | 0.177 |
| S296I | -0.0485 |
| D502L | -0.0337 |
| T346S | -0.168 |

| Variant | 8OG:A repair function score |
| --- | --- |
| T66I | -0.0285 |
| S55W | -0.0142 |
| G39Y | -0.0346 |
| T440N | -0.313 |
| D94M | -0.104 |
| I195F | -1.08 |
| N119Y | -0.361 |
| E382H | 0.042 |
| V114Y | -0.241 |
| R482A | 0.0234 |
| G188Y | -0.89 |
| G293V | -0.0545 |
| G123H | -0.0466 |
| P247V | -0.95 |
| E451K | -0.241 |
| P331E | -0.568 |
| Q394S | -0.0073 |
| P267Y | -0.838 |
| S105W | -0.677 |
| V114D | -0.453 |
| Q240R | -0.97 |

| Variant | 8OG:A repair function score |
| --- | --- |
| Q435H | 0.148 |
| R97L | -0.0375 |
| E46G | -0.0545 |
| Y120H | -0.238 |
| V414E | -0.742 |
| H420G | -0.0793 |
| A199L | -1.01 |
| A457P | -0.15 |
| V427F | -1.1 |
| W128I | -0.397 |
| V142W | -0.941 |
| Q394P | -0.467 |
| W374E | -0.436 |
| I195K | -1.05 |
| L95R | -0.104 |
| T436K | -0.201 |
| V166K | -0.116 |
| N143V | -0.199 |
| S486R | -0.0146 |
| A51L | -0.036 |
| Q397A | -0.314 |

| Variant | 8OG:A repair function score |
| --- | --- |
| Q240E | -0.919 |
| Q240V | -0.936 |
| L83F | -0.285 |
| E178H | -0.0501 |
| D96W | -0.378 |
| Q498W | 0.0137 |
| R88K | -0.364 |
| S227Y | -0.307 |
| R467W | -0.034 |
| S515R | 0.00703 |
| L180K | -0.838 |
| F59E | -0.768 |
| I221V | -0.347 |
| A520P | 0.0147 |
| Y190D | -0.858 |
| G236Q | 0.356 |
| R283F | -0.16 |
| V427L | -0.345 |
| P44A | -0.142 |
| R398N | -0.285 |
| C311V | -0.634 |
